Data as given in patent US20190338026A1 (University of Texas, published 2019).
Numbering of substitutions follows the chain as printed.

T1: human LAIR1 extracellular domain (ECD) protein with 6 HIS tag at the C-terminus (human, UniProt Q6GTX8 22-165)
T1 construct: Produced recombinantly in HEK293 cells; the whole entry is named here; also called LAIR1 ECD; LAIR1-ECD
T1 chain: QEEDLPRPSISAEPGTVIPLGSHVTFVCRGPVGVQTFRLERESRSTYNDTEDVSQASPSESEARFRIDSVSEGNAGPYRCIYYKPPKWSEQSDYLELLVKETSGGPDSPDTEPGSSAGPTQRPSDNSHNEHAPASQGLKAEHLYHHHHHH

T2: LAIR1 on LAIR1 reporter cells (human, UniProt Q6GTX8 22-165, limits assumed)
T2 chain: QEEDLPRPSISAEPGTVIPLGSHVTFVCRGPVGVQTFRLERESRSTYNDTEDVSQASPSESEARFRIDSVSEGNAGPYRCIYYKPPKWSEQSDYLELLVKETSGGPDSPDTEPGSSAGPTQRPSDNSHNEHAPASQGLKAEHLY

B1: LA-35 (antibody, V domains shown)
VH: EQSVKESGGRLVTPGTPLTLTCTVSGIDLSYYSMGWFRQAPGKGLEWIGVISSSDSTYYANWAKGRFTISKTSTTVDLKIAGPTTEDTATYFCARVLANSYNAFNLWGPGSLVTISS
VL: ELDLTQTPASVSEPVGGTVTIKCQASQSVGSRLAWYQQKPGQPPKLLIYKASTLASGVPSRFKGSGSGTQFTLTMSDLECADAATYYCQCTNISSAYLGAFGGGTEVEIK
notes: Rabbit monoclonal IgG; also called mAb LA-35
B2: LA-117 (antibody, V domains shown)
VH: QSVKESGGDLVKPGASLTLACTASGFSFSDGYYMCWVRQAPGKGLEWIGCIHSSSGSIYYASWAKGRFTISKTSSTMVTLQMSSLTAADTATYFCARDSESYGYNPCELWGPGTLVTISS
VL: ELDLTQTPASVSEAVGGTVTIKCQASQTISNYLAWYQQKPGQRPKLLIYAASSLASGVSSRFRGSRSGTEYTLTITDLECDDAATYYCQCTYYGTTYVGGAFGGGTELEIK
notes: Rabbit monoclonal IgG
B3: LA-30 (antibody, V domains shown)
VH: EQSVESGGGLVQPEGSLTLTCKASGFDFSRNAICWVRQAPGKGPEWIACYSFSSSATYYASWAKSRFTISKTSSTTVTLQMTSLTAADTATYFCARVDIYGGSRYWGMWGPGTLVTISS
VL: ELVMTQTPASVEAAVGGTVTIKCQASQNIGGDLAWYQQKPGQPPKLLIYRASTLESGVPSRFSGSGSGTEFTLTISDLECADAATYYCQDTDIGSGAFGGGTELEIK
notes: Rabbit monoclonal IgG; also called mAb LA-30
B4: LA-155 (antibody, V domains shown)
VH: EQSLEESGGDLVKPEGSLTLTCTASGFSFNSNYWICWVRQTPGKGLEWIGCIYSGSSGDTYYASWAKGRFTISKTSSTTVTLQMTSLTAADTATYFCARGADYVYWSYGLWGPGTLVTISS
VL: ELVLTQTPASVSAAVGGTLTIKCQASETIGTNLAWYQQKPGQPPKLLIYLASYLASGVSSRFKGSRSGTEFTLTISDLDCDDAATYYCQSTHFGNGHTFGGGTEVVVK
notes: Rabbit monoclonal IgG
B5: LA-151 (antibody, V domains shown)
VH: SSSVEESGGRLVTPGTPLTLTCTVSGFSLGSYAMGWVRQGPGKGLEWIGAVYGTTGYIYFATWAKGRFTISKTSTTVDLKITSPTTEDTATYFCARGYLTDSIANGFGVWGPGTLVTVSS
VL: ELDLTQTPASVSEPVGGTVTIKCQASQTITNRYLAWYQQKPGQPPKLLIYQSSKLASGVSSRFKGSGSGTDFTLTISDLECADAATYYCQCTDYGSTYLGTFGGGTEVEIK
notes: Rabbit monoclonal IgG
B6: LA-87 (antibody, V domains shown)
VH: QSVKESGGRLVTPGGSLTLTCTVSGFSLSNYNIQWVRQAPGKGLEWIGFISPAGNGYYASWAKGRFTISKASSTTVELKMTSLTASDTATYFCARHWDLWGPGTLVTISS
VL: ELVLTQTASSVSAAVGGTVTISCQSSQSVYSNYLSWFQQKPGQPPKELVYWTSTLQSGVPSRFSGSGSGTQFTLTISDLECDDAATYYCLGGYSGWFYAFGGGTEVVVK
notes: Rabbit monoclonal IgG; also called mAb LA-87
B7: LA-95 (antibody, V domains shown)
VH: EQSLKESGGRLVTPGGSLTLTCTASGFDINNYNIQWVRQAPGKGLEWIGFISPAGNEYSATWAKGRFTIYKTSSTTVELKMTSLTASDTATYFCARHWDSWGPGTLVTISS
VL: B6 VL with L4M, A8E, S10P, Y33R, W96N, F97I, A99V, V107E, V108I
notes: Rabbit monoclonal IgG; also called mAb LA-95
B8: LA-222 (antibody, V domains shown)
VH: EQSVEESGGDLVKPGASLTLTCTASGFSFTYWICWVRQAPGKGLEWIACIYAGSSGDTYYASWAKGRFTISKTSSTTVTLQMTSLTAADTATYFCARSPDYVAWGYDLWGPGTRVTVSS
VL: ELVLTQTPASVSAAVGGTVTINCQASQSIGTNLVWYQQKPGQPPKLLFYYASTLASGVPSRFRGSRSGTEYTLTISDLECADAATYYCQCIYYGGNYGHTFGGGTEVVVK
notes: Rabbit monoclonal IgG
B9: LA-101 (antibody, V domains shown)
VH: EQSVEESGGRLVTPGTPLTLTCTVSGFSLSSFHMCWVRQAPGKGLEYIGIIYPGGSTGYANWAKGRFTVSKASNTVDLKISSPTTEDTATYFCARVNYGDWINGMDLWGPGTLVTISS
VL: ELDMTQTPASVSEPVGGTVTIKCQASQSIGSNLAWYQQKPGQRPKLLIYKASTLASGVPSRFKGSGSGTDFTLTISDLECADAASYYCQQAYWSGNVDNVFGGGTEVEIK
notes: Rabbit monoclonal IgG
B10: LA-37 (antibody, V domains shown)
VH: EQSLEESGGDLVKPGASLTLTCKASGFSFSSSEFMCWVRQAPGKGLEWIACIYGGLSDDTYFASWAKGRFTISKTSSITVTLQMTSLTAADTATYFCARSCDVNYYGFDPWGPGTLVTISS
VL: ELVLTQTPAPVSAAVGDTVTIKCQASQNKGTNLAWYQQKPGQPPKLLIYLSSTLASGVPPRFKGSRSGTEYTLTISDLECADAATYFCQSTYYGSNGLTFGGGTEVEIK
notes: Rabbit monoclonal IgG; also called mAb LA-37
B11: LA-63 (antibody, V domains shown)
VH: EQSVEESGGRLVAPGGSLTLTCTVSGFSLSSYAMSWVRQAPGKGLEWIGVMYNSGSAYYASWAKGRFTISRTSTTVDLKVTSLTTEDTATYFCGRGGSNSAWGDDLWGPGTLVTVSS
VL: ELDMTQTPASVSEPVGGTVTIKCQASQSISIRYFSWYQQKPGQPPKLLIYGASTLASGVPSRFKGSGSGTDFTLTISDLECADAATYYCQDSNYNSNYFGAFGGGTEVVVK
notes: Rabbit monoclonal IgG; also called mAb LA-63
B12: LA-252 (antibody, V domains shown)
VH: EQSVEESGGRLVTPGTPLTLTCTASGFTISDYHMCWVRQAPGKGLEWIGLIRASHSTAYASWANGRFTISRTSTTVDLKITSPTSEDTATYFCARYGGSGIGCNLWGPGTLVTISS
VL: ELVLTQTPASVSEPVGGTVTIKCQASQSIDSNLAWYQQKPGQPPKQLIYAVSNLASGVPSRFKGSGSGTEFTLTISDLECADAASYYCECTYYGNSYVGGFGGGTEVEIK
notes: Rabbit monoclonal IgG; Called a potential antagonist antibody
B13: LA-64 (antibody, V domains shown)
VH: EQSLESGGGLITPGGTLTLTCTASGFTVTRYYMNWVRQAPGKGLEWIGYIYASSKTYYANWAKGRFTISKTSTTVDLKMTSLTAEDTGTYFCARGGVGNSGLNLDLWGPGTLVTISS
VL: ELVLTQTPASVSEPVGGTVTIKCQASQSIGSWLAWYQQKPGQPPKLLIYQASRLASGVSSRFGGSGSGTEFTLTISDLECADAATYYCQQAEYSGDVENTFGGGTEVVVK
notes: Rabbit monoclonal IgG; also called mAb LA-64

Molecular target: T1, human LAIR1 extracellular domain (ECD) …
Assay: ELISA, LAIR1 ECD coated, mAb titrated, anti-rabbit HRP
Procedure: (§1) The inventors then used a concentration titration (0-10 μg/ml) by ELISA to determine the LAIR1 monoclonal antibody (mAbs) binding to human LAIR1 ECD. […] For FIGS. 2-39, X axis indicates the antibody concentrations and Y-axis is binding signals, measured as OD (450 nm). To perform the ELISA assay, LAIR1 ECD recombinant protein was coated on high absorption 96-well plates. Serial diluted (3-fold) LAIR1 mAb was added to the coated/blocked plates and detected using goat anti-rabbit F(ab′)2 conjugated HRP as secondary antibody. All assays were repeated 3 times and the titration curves were fitted using 4-parameter fitting curve using the GraphPad software for EC₅₀ estimation.
(§2) Serial dilutions of the LAIR1 monoclonal antibodies (IgGs or scFvs fragments), starting from […] and 3-fold titration down for 12 steps, were added to the 96-well plate for binding by incubating 45 minutes at 37° C. with a cover on the assay plate. Then the plates were washed with PBS containing Tween 20 (0.05% concentration) for 3 times and PBS one time. […] Detection was conducted by adding HRP substrate, TMB (ThermoFisher) for 10 minutes, and stopped by adding 50 μl/well of 2N H2504. The plates were read for absorbance at 450 nm using a plate reader (SpectraMax M4, Molecular Devices). Data were collected and graphed using a 4-parameter fitting curve with GrapPad Prism 7 software for EC₅₀ calculation.

Binder | EC50 [nM]
B1 | 0.08
B2 | 0.08
B3 | 0.07
B4 | 0.04
B5 | 0.08
B6 | 0.06
B7 | 0.04
B8 | 0.05
B9 | 0.05
B10 | 0.05
B11 | 234
B12 | 0.05
B13 | 0.09

Molecular target: T2, LAIR1 on LAIR1 reporter cells
Assay: cell-based or functional assay

Binder | GFP+ of LAIR1 reporter cells, Collagen I coated [%] | GFP+ of LAIR1 reporter cells, Collagen I coated + K562 [%]
B12 | < 5 | < 5

Molecular target: T1, human LAIR1 extracellular domain (ECD) …
Assay: ELISA, LAIR1 ECD coated
Procedure: as §1, §2

Binder | EC50 (read off the curve) [ng/mL]
B1 | ~10
B2 | ~10
B3 | ~10
B4 | ~7
B5 | ~10
B6 | ~10
B7 | ~7
B8 | ~7
B9 | ~8
B10 | ~8
B12 | ~8
B13 | ~10

Molecular target: T2, LAIR1 on LAIR1 reporter cells
Assay: cell-based or functional assay
Remark: another data set of the same source

Binder | GFP+% of LAIR1 reporter cells, collagen I coated, soluble Ab and K562 cells [%]
B1 | 1.13
B3 | 1.94
B4 | 0.867
B5 | 1.95
B6 | 0.844
B7 | 0.595
B8 | 0.792
B10 | 1.08
B11 | 1.31
B12 | 0.698
B13 | 2.29

Molecular target: T2, LAIR1 on LAIR1 reporter cells
Assay: cell-based or functional assay
Remark: another data set of the same source

Binder | GFP+% of LAIR1 reporter cells, collagen I coated, soluble Ab [%]
B1 | 1.1
B2 | 3.19
B3 | 1.51
B4 | 0.746
B5 | 0.678
B6 | 1.45
B7 | 0.711
B8 | 0.905
B9 | 2.92
B10 | 0.86
B11 | 2.42
B12 | 0.679
B13 | 1.5
